Numbered stars: 1 amine (or outer) side, 2 acyl side, 3 side chain; on linkers, the order of the positions; unused ones are H or OH. Bridge positions count the residues as written; N and C are the ends. Side chains are listed from the residue outwards. Ends that are not written are not given here. * marks the point of attachment. C20 diacid = O=C(O)CCCCCCCCCCCCCCCCCCC(=O)*; γGlu = O=C(O)[C@H](CCC(=O)[*:2])N[*:1]
B1: N^ε1-[(4S)-4-carboxy-4-(19-carboxynonadecanoylamino)butanoyl]-[His14,Arg17,Pro21,Pro27]-h-amylin (peptide)
peptide: K([γGlu-C20 diacid])CNTATCATQRLAHFLRHSSPNFGAIPSSTNVGSNTY-NH2
modifications: disulfide 2-7; N-terminus assumed
SMILES: CC[C@H](C)[C@H](NC(=O)[C@H](C)NC(=O)CNC(=O)[C@H](Cc1ccccc1)NC(=O)[C@H](CC(N)=O)NC(=O)[C@@H]1CCCN1C(=O)[C@H](CO)NC(=O)[C@H](CO)NC(=O)[C@H](Cc1c[nH]cn1)NC(=O)[C@H](CCCNC(=N)N)NC(=O)[C@H](CC(C)C)NC(=O)[C@H](Cc1ccccc1)NC(=O)[C@H](Cc1c[nH]cn1)NC(=O)[C@H](C)NC(=O)[C@H](CC(C)C)NC(=O)[C@H](CCCNC(=N)N)NC(=O)[C@H](CCC(N)=O)NC(=O)[C@@H](NC(=O)[C@H](C)NC(=O)[C@@H]1CSSC[C@H](NC(=O)[C@@H](N)CCCCNC(=O)CC[C@H](NC(=O)CCCCCCCCCCCCCCCCCCC(=O)O)C(=O)O)C(=O)N[C@@H](CC(N)=O)C(=O)N[C@@H]([C@@H](C)O)C(=O)N[C@@H](C)C(=O)N[C@@H]([C@@H](C)O)C(=O)N1)[C@@H](C)O)C(=O)N1CCC[C@H]1C(=O)N[C@@H](CO)C(=O)N[C@@H](CO)C(=O)N[C@H](C(=O)N[C@@H](CC(N)=O)C(=O)N[C@H](C(=O)NCC(=O)N[C@@H](CO)C(=O)N[C@@H](CC(N)=O)C(=O)N[C@H](C(=O)N[C@@H](Cc1ccc(O)cc1)C(N)=O)[C@@H](C)O)C(C)C)[C@@H](C)O
notes: also called compound 70
B2: N^ε1-[(4S)-4-carboxy-4-[[(4S)-4-carboxy-4-(19-carboxynonadecanoylamino)butanoyl]amino]butanoyl]-[Asp14,Arg17,Pro21,Pro26,Asp35]-h-amylin (peptide)
peptide: K([γGlu-γGlu-C20 diacid])CNTATCATQRLADFLRHSSPNFGAPLSSTNVGSDTY-NH2
modifications: disulfide 2-7; N-terminus assumed
SMILES: CC(C)C[C@H](NC(=O)[C@H](CCCNC(=N)N)NC(=O)[C@H](CCC(N)=O)NC(=O)[C@@H](NC(=O)[C@H](C)NC(=O)[C@@H]1CSSC[C@H](NC(=O)[C@@H](N)CCCCNC(=O)CC[C@H](NC(=O)CC[C@H](NC(=O)CCCCCCCCCCCCCCCCCCC(=O)O)C(=O)O)C(=O)O)C(=O)N[C@@H](CC(N)=O)C(=O)N[C@@H]([C@@H](C)O)C(=O)N[C@@H](C)C(=O)N[C@@H]([C@@H](C)O)C(=O)N1)[C@@H](C)O)C(=O)N[C@@H](C)C(=O)N[C@@H](CC(=O)O)C(=O)N[C@@H](Cc1ccccc1)C(=O)N[C@@H](CC(C)C)C(=O)N[C@@H](CCCNC(=N)N)C(=O)N[C@@H](Cc1c[nH]cn1)C(=O)N[C@@H](CO)C(=O)N[C@@H](CO)C(=O)N1CCC[C@H]1C(=O)N[C@@H](CC(N)=O)C(=O)N[C@@H](Cc1ccccc1)C(=O)NCC(=O)N[C@@H](C)C(=O)N1CCC[C@H]1C(=O)N[C@@H](CC(C)C)C(=O)N[C@@H](CO)C(=O)N[C@@H](CO)C(=O)N[C@H](C(=O)N[C@@H](CC(N)=O)C(=O)N[C@H](C(=O)NCC(=O)N[C@@H](CO)C(=O)N[C@@H](CC(=O)O)C(=O)N[C@H](C(=O)N[C@@H](Cc1ccc(O)cc1)C(N)=O)[C@@H](C)O)C(C)C)[C@@H](C)O
notes: also called compound 1
B3: N^ε1-[(4S)-4-carboxy-4-[[(4S)-4-carboxy-4-(19-carboxynonadecanoylamino)butanoyl]amino]butanoyl]-[Asp14,Arg17,Pro21,Pro27,Arg35]-h-amylin (peptide)
peptide: K([γGlu-γGlu-C20 diacid])CNTATCATQRLADFLRHSSPNFGAIPSSTNVGSRTY-NH2
modifications: disulfide 2-7; N-terminus assumed
SMILES: CC[C@H](C)[C@H](NC(=O)[C@H](C)NC(=O)CNC(=O)[C@H](Cc1ccccc1)NC(=O)[C@H](CC(N)=O)NC(=O)[C@@H]1CCCN1C(=O)[C@H](CO)NC(=O)[C@H](CO)NC(=O)[C@H](Cc1c[nH]cn1)NC(=O)[C@H](CCCNC(=N)N)NC(=O)[C@H](CC(C)C)NC(=O)[C@H](Cc1ccccc1)NC(=O)[C@H](CC(=O)O)NC(=O)[C@H](C)NC(=O)[C@H](CC(C)C)NC(=O)[C@H](CCCNC(=N)N)NC(=O)[C@H](CCC(N)=O)NC(=O)[C@@H](NC(=O)[C@H](C)NC(=O)[C@@H]1CSSC[C@H](NC(=O)[C@@H](N)CCCCNC(=O)CC[C@H](NC(=O)CC[C@H](NC(=O)CCCCCCCCCCCCCCCCCCC(=O)O)C(=O)O)C(=O)O)C(=O)N[C@@H](CC(N)=O)C(=O)N[C@@H]([C@@H](C)O)C(=O)N[C@@H](C)C(=O)N[C@@H]([C@@H](C)O)C(=O)N1)[C@@H](C)O)C(=O)N1CCC[C@H]1C(=O)N[C@@H](CO)C(=O)N[C@@H](CO)C(=O)N[C@H](C(=O)N[C@@H](CC(N)=O)C(=O)N[C@H](C(=O)NCC(=O)N[C@@H](CO)C(=O)N[C@@H](CCCNC(=N)N)C(=O)N[C@H](C(=O)N[C@@H](Cc1ccc(O)cc1)C(N)=O)[C@@H](C)O)C(C)C)[C@@H](C)O
notes: also called compound 52
B4: N^ε1-[(4S)-4-carboxy-4-[[(4S)-4-carboxy-4-(19-carboxynonadecanoylamino)butanoyl]amino]butanoyl]-[Asp14,Arg17,Pro21,Pro27,Asp35]-h-amylin (peptide)
peptide: K([γGlu-γGlu-C20 diacid])CNTATCATQRLADFLRHSSPNFGAIPSSTNVGSDTY-NH2
modifications: disulfide 2-7; N-terminus assumed
SMILES: CC[C@H](C)[C@H](NC(=O)[C@H](C)NC(=O)CNC(=O)[C@H](Cc1ccccc1)NC(=O)[C@H](CC(N)=O)NC(=O)[C@@H]1CCCN1C(=O)[C@H](CO)NC(=O)[C@H](CO)NC(=O)[C@H](Cc1c[nH]cn1)NC(=O)[C@H](CCCNC(=N)N)NC(=O)[C@H](CC(C)C)NC(=O)[C@H](Cc1ccccc1)NC(=O)[C@H](CC(=O)O)NC(=O)[C@H](C)NC(=O)[C@H](CC(C)C)NC(=O)[C@H](CCCNC(=N)N)NC(=O)[C@H](CCC(N)=O)NC(=O)[C@@H](NC(=O)[C@H](C)NC(=O)[C@@H]1CSSC[C@H](NC(=O)[C@@H](N)CCCCNC(=O)CC[C@H](NC(=O)CC[C@H](NC(=O)CCCCCCCCCCCCCCCCCCC(=O)O)C(=O)O)C(=O)O)C(=O)N[C@@H](CC(N)=O)C(=O)N[C@@H]([C@@H](C)O)C(=O)N[C@@H](C)C(=O)N[C@@H]([C@@H](C)O)C(=O)N1)[C@@H](C)O)C(=O)N1CCC[C@H]1C(=O)N[C@@H](CO)C(=O)N[C@@H](CO)C(=O)N[C@H](C(=O)N[C@@H](CC(N)=O)C(=O)N[C@H](C(=O)NCC(=O)N[C@@H](CO)C(=O)N[C@@H](CC(=O)O)C(=O)N[C@H](C(=O)N[C@@H](Cc1ccc(O)cc1)C(N)=O)[C@@H](C)O)C(C)C)[C@@H](C)O
notes: also called compound 2
B5: N^ε1N^ε1-[(4S)-4-carboxy-4-(19-carboxynonadecanoylamino)butanoyl]-[His14,Arg17,Pro21,Pro27,Pro34]-h-amylin (peptide)
peptide: K([γGlu-C20 diacid])CNTATCATQRLAHFLRHSSPNFGAIPSSTNVGPNTY-NH2
modifications: disulfide 2-7; N-terminus assumed
SMILES: CC[C@H](C)[C@H](NC(=O)[C@H](C)NC(=O)CNC(=O)[C@H](Cc1ccccc1)NC(=O)[C@H](CC(N)=O)NC(=O)[C@@H]1CCCN1C(=O)[C@H](CO)NC(=O)[C@H](CO)NC(=O)[C@H](Cc1c[nH]cn1)NC(=O)[C@H](CCCNC(=N)N)NC(=O)[C@H](CC(C)C)NC(=O)[C@H](Cc1ccccc1)NC(=O)[C@H](Cc1c[nH]cn1)NC(=O)[C@H](C)NC(=O)[C@H](CC(C)C)NC(=O)[C@H](CCCNC(=N)N)NC(=O)[C@H](CCC(N)=O)NC(=O)[C@@H](NC(=O)[C@H](C)NC(=O)[C@@H]1CSSC[C@H](NC(=O)[C@@H](N)CCCCNC(=O)CC[C@H](NC(=O)CCCCCCCCCCCCCCCCCCC(=O)O)C(=O)O)C(=O)N[C@@H](CC(N)=O)C(=O)N[C@@H]([C@@H](C)O)C(=O)N[C@@H](C)C(=O)N[C@@H]([C@@H](C)O)C(=O)N1)[C@@H](C)O)C(=O)N1CCC[C@H]1C(=O)N[C@@H](CO)C(=O)N[C@@H](CO)C(=O)N[C@H](C(=O)N[C@@H](CC(N)=O)C(=O)N[C@H](C(=O)NCC(=O)N1CCC[C@H]1C(=O)N[C@@H](CC(N)=O)C(=O)N[C@H](C(=O)N[C@@H](Cc1ccc(O)cc1)C(N)=O)[C@@H](C)O)C(C)C)[C@@H](C)O
notes: also called compound 67
B6: N^α1-[(4S)-4-carboxy-4-(19-carboxynonadecanoylamino)butanoyl]-[Glu14,Arg17,Pro21,Pro25,Pro28,Pro29]-h-amylin (peptide)
peptide: {C20 diacid-γGlu}-KCNTATCATQRLAEFLRHSSPNFGPILPPTNVGSNTY-NH2
modifications: disulfide 2-7
SMILES: CC[C@H](C)[C@H](NC(=O)[C@@H]1CCCN1C(=O)CNC(=O)[C@H](Cc1ccccc1)NC(=O)[C@H](CC(N)=O)NC(=O)[C@@H]1CCCN1C(=O)[C@H](CO)NC(=O)[C@H](CO)NC(=O)[C@H](Cc1c[nH]cn1)NC(=O)[C@H](CCCNC(=N)N)NC(=O)[C@H](CC(C)C)NC(=O)[C@H](Cc1ccccc1)NC(=O)[C@H](CCC(=O)O)NC(=O)[C@H](C)NC(=O)[C@H](CC(C)C)NC(=O)[C@H](CCCNC(=N)N)NC(=O)[C@H](CCC(N)=O)NC(=O)[C@@H](NC(=O)[C@H](C)NC(=O)[C@@H]1CSSC[C@H](NC(=O)[C@H](CCCCN)NC(=O)CC[C@H](NC(=O)CCCCCCCCCCCCCCCCCCC(=O)O)C(=O)O)C(=O)N[C@@H](CC(N)=O)C(=O)N[C@@H]([C@@H](C)O)C(=O)N[C@@H](C)C(=O)N[C@@H]([C@@H](C)O)C(=O)N1)[C@@H](C)O)C(=O)N[C@@H](CC(C)C)C(=O)N1CCC[C@H]1C(=O)N1CCC[C@H]1C(=O)N[C@H](C(=O)N[C@@H](CC(N)=O)C(=O)N[C@H](C(=O)NCC(=O)N[C@@H](CO)C(=O)N[C@@H](CC(N)=O)C(=O)N[C@H](C(=O)N[C@@H](Cc1ccc(O)cc1)C(N)=O)[C@@H](C)O)C(C)C)[C@@H](C)O
notes: also called compound 6
B7: N^α1-[2-[2-[2-[[2-[2-[2-[[(4S)-4-carboxy-4-(19-carboxynonadecanoylamino)butanoyl]amino]ethoxy]ethoxy]acetyl]amino]ethoxy]ethoxy]acetyl]-[Arg17,Pro21,Pro27]-h-am … (peptide)
peptide: KCNTATCATQRLANFLRHSSPNFGAIPSSTNVGSNTY
modifications: C20 diacid-gGlu-2xOEG on alpha amino group of N-terminal Lys 1; disulfide Cys2-Cys7; C-terminal amide (as human amylin)
notes: also called compound 24

The binders below were run against T1, human calcitonin receptor (human, UniProt P30988 25-474) (assay: SPA competition with 125I-calcitonin, membranes of BHK hCTR cells (Assay VII)).
T1 construct: whole, on cells; also called hCTR; hCT
T1 sequence (looked up): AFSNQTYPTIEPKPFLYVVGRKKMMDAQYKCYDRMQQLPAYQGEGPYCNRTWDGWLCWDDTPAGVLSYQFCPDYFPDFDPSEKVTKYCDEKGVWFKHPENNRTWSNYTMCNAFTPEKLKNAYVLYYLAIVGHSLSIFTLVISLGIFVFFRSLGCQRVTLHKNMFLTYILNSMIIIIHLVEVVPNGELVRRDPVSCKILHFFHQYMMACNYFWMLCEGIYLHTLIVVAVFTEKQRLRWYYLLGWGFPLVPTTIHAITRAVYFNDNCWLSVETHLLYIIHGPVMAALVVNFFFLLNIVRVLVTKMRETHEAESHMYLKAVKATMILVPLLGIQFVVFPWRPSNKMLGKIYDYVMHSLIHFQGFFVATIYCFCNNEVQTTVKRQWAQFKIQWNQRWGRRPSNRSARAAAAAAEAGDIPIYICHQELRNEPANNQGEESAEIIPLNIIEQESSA
How it was run: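 BHK hCTR membranes 35 ng/μL + SPA beads 0.05 mg/well; buffer 50 mM Hepes pH 7.4, 1 mM CaCl2, 5 mM MgCl₂, 0.1% OA, 0.02% Tween20. 120 min, 25° C., shaking. Scintillation count; IC50 by one-site binding competition.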

| IC50 | Binder |
| --- | --- |
| 10.3 nM | B1 |
| 32.5 nM | B2 |
| 56.9 nM | B3 |
| 19.5 nM | B4 |
| 4.63 nM | B5 |
| 19.9 nM | B6 |
| 102 nM | B7 |

From patent publication US20140087995A1 (published 2014)
